# Source: US20240131068A1 (KITE PHARMA, published 2024)
# T1: native CD19 expressed on NALM6 tumor cells (UniProt P15391 20-556)
# T1 construct: whole, on cells; also called CD19^+ NALM6; NALM6-wt
# T1 sequence (looked up): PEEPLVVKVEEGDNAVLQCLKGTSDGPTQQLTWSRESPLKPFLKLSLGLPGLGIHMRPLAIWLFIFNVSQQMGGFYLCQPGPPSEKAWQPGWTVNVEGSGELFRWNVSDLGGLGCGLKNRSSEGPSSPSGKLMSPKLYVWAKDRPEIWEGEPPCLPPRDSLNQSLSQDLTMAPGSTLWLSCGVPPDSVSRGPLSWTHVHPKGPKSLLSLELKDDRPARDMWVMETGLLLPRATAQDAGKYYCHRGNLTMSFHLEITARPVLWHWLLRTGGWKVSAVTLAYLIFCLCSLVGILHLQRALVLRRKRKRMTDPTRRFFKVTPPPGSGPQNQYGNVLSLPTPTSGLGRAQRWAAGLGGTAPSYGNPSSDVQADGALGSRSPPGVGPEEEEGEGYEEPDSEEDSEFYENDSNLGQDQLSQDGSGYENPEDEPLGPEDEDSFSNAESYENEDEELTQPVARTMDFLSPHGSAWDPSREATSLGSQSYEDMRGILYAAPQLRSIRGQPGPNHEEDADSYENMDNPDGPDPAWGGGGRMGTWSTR
# Key:
# [1] = molecular target: SIGLEC 7 (UniProt Q9Y286 19-467, limits assumed); assay: counter-selection of scFv clones against baculovirus and SIGLEC 7, 8 and 9
# Excerpt: (§1) These up to 30 scFv clones were further screened based on their ability to bind baculovirus or SIGLEC. Clones that bound biotinylated baculovirus or SIGLEC 7, 8 and 9 were removed from consideration.
# [2] = molecular target: SIGLEC 8 (UniProt Q9NYZ4 17-499, limits assumed); assay: as above
# Excerpt: as §1
# [3] = molecular target: SIGLEC 9 (UniProt Q9Y336 18-463, limits assumed); assay: as above
# Excerpt: as §1
# [4] = molecular target: T1, native CD19 expressed on NALM6 tumor …; assay: screen of scFv clones on CD19^+ NALM6 cells, Nalm6-CD19KO cells as negative control
# Excerpt: To ensure that the up to (30) clones could recognize native CD19 expressed on tumor cells, the clones (scFv) were also screened against NALM6 tumor cell line positive (+) CD19 expression (NALM6 cell line+CD19). CD19 knockout Nalm6 cell line (NALM6 cell line⁻ CD1; or CD19KO Nalm6 cell line) were used as a negative control for the selection. CD19KO Nalm6 cell lines used for the screen were engineered CRISPR knocked-out (KO) Nalm6-CD19KO cells. Clones that bound CD19⁺ NALM6 tumor cells, but not CD19-NALM6 tumor cells (CD19K0) were selected (Step 4).
# SIGLEC 8, sequence (Q9NYZ4 17-499 limits assumed): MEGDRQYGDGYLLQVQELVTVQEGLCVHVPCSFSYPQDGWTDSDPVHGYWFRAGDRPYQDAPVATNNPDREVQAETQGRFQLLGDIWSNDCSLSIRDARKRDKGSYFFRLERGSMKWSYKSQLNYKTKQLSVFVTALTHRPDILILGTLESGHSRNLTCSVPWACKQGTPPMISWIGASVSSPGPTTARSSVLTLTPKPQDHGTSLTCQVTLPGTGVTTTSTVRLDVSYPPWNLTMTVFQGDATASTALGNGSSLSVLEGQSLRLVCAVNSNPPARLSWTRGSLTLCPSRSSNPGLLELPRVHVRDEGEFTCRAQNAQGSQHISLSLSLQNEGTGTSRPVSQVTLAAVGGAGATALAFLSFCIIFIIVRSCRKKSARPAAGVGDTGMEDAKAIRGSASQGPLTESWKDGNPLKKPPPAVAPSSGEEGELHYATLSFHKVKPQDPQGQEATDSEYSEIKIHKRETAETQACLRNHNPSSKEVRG
# SIGLEC 9, sequence (Q9Y336 18-463 limits assumed): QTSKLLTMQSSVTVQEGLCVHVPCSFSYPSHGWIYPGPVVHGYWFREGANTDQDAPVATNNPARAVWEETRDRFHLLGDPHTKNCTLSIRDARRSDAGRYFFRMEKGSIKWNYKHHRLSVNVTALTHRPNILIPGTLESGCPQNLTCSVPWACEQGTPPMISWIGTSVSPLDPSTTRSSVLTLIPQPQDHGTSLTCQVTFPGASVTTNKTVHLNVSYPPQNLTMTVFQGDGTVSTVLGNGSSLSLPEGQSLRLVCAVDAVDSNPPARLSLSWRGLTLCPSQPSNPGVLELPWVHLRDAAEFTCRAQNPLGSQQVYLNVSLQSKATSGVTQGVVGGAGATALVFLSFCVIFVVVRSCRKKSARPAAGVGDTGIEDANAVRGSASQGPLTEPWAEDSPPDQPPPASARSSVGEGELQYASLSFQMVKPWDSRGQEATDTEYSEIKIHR
# SIGLEC 7, sequence (Q9Y286 19-467 limits assumed): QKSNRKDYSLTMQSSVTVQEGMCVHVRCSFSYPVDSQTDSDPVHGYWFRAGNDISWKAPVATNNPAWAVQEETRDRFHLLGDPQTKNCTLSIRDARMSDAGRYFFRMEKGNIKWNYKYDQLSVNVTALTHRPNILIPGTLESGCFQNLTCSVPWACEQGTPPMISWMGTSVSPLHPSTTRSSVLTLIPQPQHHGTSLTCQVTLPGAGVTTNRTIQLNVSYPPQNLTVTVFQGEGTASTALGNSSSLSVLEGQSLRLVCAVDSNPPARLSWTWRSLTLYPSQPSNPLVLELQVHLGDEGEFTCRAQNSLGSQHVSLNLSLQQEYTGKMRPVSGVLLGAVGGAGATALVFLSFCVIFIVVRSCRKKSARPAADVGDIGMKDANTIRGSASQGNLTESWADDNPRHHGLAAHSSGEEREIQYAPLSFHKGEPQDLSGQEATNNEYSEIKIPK
binder,measurement,setting,value
"CD19 E7 scFv (P4) (scFv, scFv clone from the display library, screened as a library clone; also called 45; clone 45) scFv: DIQMTQSPSSLSASVGDRVTITCRASQDITRYLNWYQQKPGKAPKLLIYAASSLQSGVPSRFSGSGSGTDFTLTISSLQPEDFATYYCQQSYSYPPTFGQGTKVEIKGGGGSGGGGSGGGGSQVQLVESGGGVVQPGRSLRLSCAASGFTFRDYGMHWVRQAPGKGLEWVAVISYEGSNEYYADSVKGRFTISRDNSKNTLYLQMNSLRAEDTAVYYCARDRGFAGWYDYAFDPWGQGTLVTVSS",binding result,[1],no binding
same,binding result,[2],no binding
same,binding result,[3],no binding
same,binding result,[4],binds
"CD19 14 scFv (P8) (scFv, scFv clone from the display library, screened as a library clone; also called 49; clone 49) scFv: DIQMTQSPSSLSASVGDRVTITCRASQSISNYLNWYQQKPGKAPKLLIYAASSLQSGVPSRFSGSGSGTDFTLTISSLQPEDFATYYCQQAYSAPITFGQGTKVEIKGGGGSGGGGSGGGGSEVQLLESGGGLVQPGGSLRLSCAASGFTFGDYAMSWVRQAPGKGLEWVSAISRGGHGTYYADSVKGRFTISRDNSKNTLYLQMNSLRAEDTAVYYCARLVGYGLDYWGQGTLVTVSS",binding result,[4],binds
"CD19 11 scFv (P7) (scFv, scFv clone from the display library, screened as a library clone; also called 48; clone 48) scFv: DIQMTQSPSSLSASVGDRVTITCRASQSISSYLNWYQQKPGKAPKLLIYAASSLQSGVPSRFSGSGSGTDFTLTISSLQPEDFATYYCQQTGAVPYTFGQGTKVEIKGGGGSGGGGSGGGGSEVQLLESGGGLVQPGGSLRLSCAASGFTFRDYAMSWVRQAPGKGLEWVSAISESGIDTYYADSVKGRFTISRDNSKNTLYLQMNSLRAEDTAVYYCARVAGYDSDSSTYYDYMDVWGQGTLVTVSS",binding result,[4],binds
"CD19 15 scFv (P9) (scFv, scFv clone from the display library, screened as a library clone; also called 50; clone 50) scFv: DIQMTQSPSSLSASVGDRVTITCRASQPIRPYLNWYQQKPGKAPKLLIYDASSLQSGVPSRFSGSGSGTDFTLTISSLQPEDFATYYCQQSYSAPYTFGQGTKVEIKGGGGSGGGGSGGGGSEVQLLESGGGLVQPGGSLRLSCAASGFTFSSYAMSWVRQAPGKGLEWVSVISGGGANTYYADSVKGRFTISRDNSKNTLYLQMNSLRAEDTAVYYCARDWRYFDHWGQGTLVTVSS",binding result,[4],binds
"CD19 18 scFv (P11) (scFv, scFv clone from the display library, screened as a library clone; also called 52; clone 52) scFv: QSVLTQPPSVSGAPGQRVTISCTGSSSNIGAGYDVHWYQQLPGTAPKLLIYGTKNRPSGVPDRFSGSKSGTSASLAITGLQAEDEADYYCQSYDVRLKGWVFGGGTKLTVLGGGGSGGGGSGGGGSQLQLQESGPGLVKPSETLSLTCTVSGGSITSSSYYWGWIRQPPGKGLEWIGSIYYTGTTYYNPSLKSRVTISVDTSKNQFSLKLSSVTAADTAVYYCARYVGLSGGFDYWGQGTLVTVSS",binding result,[4],binds
"CD19 7 scFv (P5) (scFv, scFv clone from the display library, screened as a library clone; also called 46; clone 46) scFv: DIQMTQSPSSLSASVGDRVTITCRASQSISKYLNWYQQKPGKAPKLLIYDASSLQSGVPSRFSGSGSGTDFTLTISSLQPEDFATYYCQQSYTIPLTFGQGTKVEIKGGGGSGGGGSGGGGSQVQLVQSGAEVKKPGSSVKVSCKASGGTFSSYAFSWVRQAPGQGLEWMGGIVPLFGAVEYAQKFQGRVTITADESTSTAYMELSSLRSEDTAVYYCAREKGFYRYFDHWGQGTLVTVSS",binding result,[4],binds
"CD19 23 scFv (P12) (scFv, scFv clone from the display library, screened as a library clone; also called 53; clone 53) scFv: DIQMTQSPSSLSASVGDRVTITCRASQSIYSYLNWYQQKRGKAPKLLIYDASSLQSGVPSRFSGSGSGTDFTLTISSLQPEDFATYYCQQSYTAPPTFGQGTKVEIKGGGGSGGGGSGGGGSEVQLLESGGGLVQPGGSLRLSCAASGFTFSNYAMSWVRQAPGKGLEWVSAISESGHGTYYADSVKGRFTISRDNSKNTLYLQMNSLRAEDTAVYYCARLDWAGFDVWGQGTLVTVSS",binding result,[4],binds
"CD19 16 scFv (P10) (scFv, scFv clone from the display library, screened as a library clone; also called 51; clone 51) scFv: QSVLTQPPSVSGAPGQRVTISCTGSSSNIGAGYDVHWYQQLPGTAPKLLIYGNNNRPSGVPDRFSGSKSGTSASLAITGLQAEDEADYYCQSYDVSLGVWVFGGGTKLTVLGGGGSGGGGSGGGGSQLQLQESGPGLVKPSETLSLTCTVSGGSISSPSYYWGWIRQPPGKGLEWIGSIYYTGATYYNPSLKSRVTISVDTSKNQFSLKLSSVTAADTAVYYCARYGPAGVGFDYWGQGTLVTVSS",binding result,[4],binds
"CD19 10 scFv (P6) (scFv, scFv clone from the display library, screened as a library clone; also called 47; clone 47) scFv: DIQMTQSPSSLSASVGDRVTITCRASQTISRYLNWYQQKPGKAPKLLIYAASSLQSGVPSRFSGSGSGTDFTLTISSLQPEDFATYYCQQSYRPPLTFGQGTKVEIKGGGGSGGGGSGGGGSEVQLLESGGGLVQPGGSLRLSCAASGFTFSSYAMSWVRQAPGKGLEWVSTISAGGHGTYYADSVKGRFTISRDNSKNTLYLQMNSLRAEDTAVYYCARGAGYFDYWGQGTLVTVSS",binding result,[4],binds
